B1: Antibody No. A002 (ADI-50024) IgG1 (antibody, V domains shown)
VH: QVQLVQSGAEVKKPGASVKVSCKASGFNIKDYYMHWVRQAPGQRLEWIGWIDLENANTVYDAKFQGRVTITRDTSASTAYMELSSLRSEDTAVYYCARDAYGRYFYDVWGQGTLVTVSS
VL: DIVMSQSPDSLAVSLGERATINCKSSQSLLNARTGKNYLAWYQQKPGQPPKLLIYWASTRSSGVPDRFSGSGSGTDFTLTISSLQAEDVAVYYCVQSYFRRTFGGGTKVEIK
B2: Antibody No. V009 (ADI-70326) IgG1 (antibody, V domains shown)
VH: QVQLVQSGAEVKKPGASVKVSCKASGFDIKDYYMHWVRQAPGQRLEWIGWIELENADTVYDAKFQGRVTITRDTSASTAYMELSSLRSEDTAVYYCARDAYGRYFYDVWGQGTLVTVSS
VL: DIVMSQSPDSLAVSLGERATINCKSSQSLLNARTGKNYLAWYQQKPGQPPKLLIYWASTRSSGVPDRFSGSGSGTDFTLTISSLQAEDVAVYYCVQSYFRRTFGGGTKVEIK
B3: Antibody No. V010 (ADI-70327) IgG1 (antibody, V domains shown)
VH: QVQLVQSGAEVKKPGASVKVSCKASGFDIKDYYMHWVRQAPGQRLEWIGWIELENDDTVYDAKFQGRVTITRDTSASTAYMELSSLRSEDTAVYYCARDAYGRYFYDVWGQGTLVTVSS
VL: DIVMSQSPDSLAVSLGERATINCKSSQSLLNARTGKNYLAWYQQKPGQPPKLLIYWASTRSSGVPDRFSGSGSGTDFTLTISSLQAEDVAVYYCVQSYFRRTFGGGTKVEIK
B4: Antibody No. V013 (ADI-70330) IgG1 (antibody, V domains shown)
VH: QVQLVQSGAEVKKPGASVKVSCKASGFNIDDYYMHWVRQAPGQRLEWIGWIDLENANTVDDAKFQGRVTITRDTSASTAYMELSSLRSEDTAVYYCARDAYGRYFYDVWGQGTLVTVSS
VL: DIVMSQSPDSLAVSLGERATINCKSSQSLLNARTGKNYLAWYQQKPGQPPKLLIYWASTRSSGVPDRFSGSGSGTDFTLTISSLQAEDVAVYYCVQSYFRRTFGGGTKVEIK

Results on four molecules are retold here after patent US20240317858A1.

In this assay the target is Mouse CD3εδ Fc heterodimer (mouse) (UniProt P22646). Nature of the assay: BLI (Octet), IgG avidity, pH 7.4. (In general: Biolayer interferometry detects binding as a change in optical thickness at a sensor tip.)
The molecule B1 yielded a Kd of 91 nM.

The molecule B2 came in with a Kd of 360 nM.

B3 came in with a Kd of 510 nM.

Consider B4, for which the Kd turned out to be 530 nM.
